Biological target: BBPLo, bilin-binding protein from Lonomia obliqua (a variant of lopap) (Lonomia obliqua)
Assay: SEC; analytical gel filtration of recombinant, refolded BBPLo on Superdex 75, calibrated with standards (myoglobin, NP2, IPP, BSA); monomers to dimer

## BBPLo, bilin-binding protein from Lonomia obliqua (a variant of lopap) (natural protein)
  stoichiometry N: 2

From article PMC4074040
